According to PMC10870365, “Dissection of protein and RNA regions required for SPEN binding to XIST A-repeat RNA”:

Biological target: T1, SPEN RRM 2-3 (Homo sapiens) (UniProt Q96T58)
T1 sequence: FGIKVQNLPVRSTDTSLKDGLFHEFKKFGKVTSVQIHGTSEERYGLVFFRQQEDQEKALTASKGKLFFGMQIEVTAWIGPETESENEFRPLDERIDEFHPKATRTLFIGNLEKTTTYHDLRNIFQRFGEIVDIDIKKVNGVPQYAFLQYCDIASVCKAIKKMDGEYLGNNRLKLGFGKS
Test: EMSA
Conditions: EMSA: 20 mM Tris-HCl pH 7.5, 150 mM KCl, 5 mM MgCl2, 10% glycerol, room temperature 30 min, 2 nM each labeled RNA (multiplexed), 4.5% TBE native gel

Row | Sequence | Kd [µM]
1 | GGGCUGCGGAUACCUGGUUUUAUUAUUUUUUCUUUGCCCAACGGGGCCGUGGAUACCUGCCUUUUAAUUCUUUUUUAUUCGCCCAUCGGGGCCGCGGAUACCUGCUUUUUAUUUUUUUUUCCUUAGCCCAUCGGGGUAUCGGAUACCUGCUGAUUCCCUUCCCCUCUGAACCCCCAACACUCUGGCCCAUCGGGGUGACGGAUAUCUGCUUUUUAAAAAUUUUCUUUUUUUGGCCCAUCGGGGCUUCGGAUACCUGCUUUUUUUUUUUUUAUUUUUCCUUGCCCAUCGGGGCCUCGGAUACCUGCUUUAAUUUUUGUUUUUCUGGCCCAUCGGGGCCGCGGAUACCUGCUUUGAUUUUUUUUUUUCAUCGCCCAUCGGUGCU [XIST A-full] | 1.05
2 | GUACCAGGUAUGUGAUGACAUCAGCCGACGCCUGGCACUGCUGCAGGAACAGUGGGCUGGAGGAAAGUUGUCAAUACCUGUAAAGAAGAGAAUGGCUCUACUGGUGCAAGAGCUUUCAAGCCACCGGUGGGACGCAGCAGAUGACAUCCACCGCUCCCUCAUGGUUGACCAUGUGACUGAGGUCAGUCAGUGGAUGGUAGGAGUUAAAAGAUUAAUUGCAGAAAAGAGGAGUCUGUUUUCAGAGGAGGCAGCCAAUGAAGAGAAAUCUGCAGCCACAGCUGAGAAGAACCAUACCAUACCAGGCUUCCAGCAGGCUUCAUAAUCCUCGGUUCCCCAGACUCACCGGACACCAUCUCCU [SRA] | 5.57
